The source of these data is patent US8663642B2, “Anti-CD70 antibody-drug conjugates and their use for the treatment and prevention of cancer and immune disorders” (priority 2003, dated 2014).

For data set [1], the system named is normal kidney epithelial lines RPTEC and HRCE. Briefly: Proliferation/cytotoxicity on normal kidney epithelial lines. It counts as cell-based, human.
For data set [2], the system named is CD70^+ RCC lines. Nature of the data set: 3H-TdR proliferation assay, panel of RCC lines. Type of data set: cell-based, human.
The next data set has as its system Caki-2 cells. Briefly: 3H-TdR proliferation assay, RCC lines. It counts as cell-based, human.
Data set [3] has as its system PBMCs stimulated with irradiated allogeneic CESS cells. Nature of the data set: Mixed lymphocyte reaction (3H-TdR). Particulars: MLR, 5-day culture. Type of data set: cell-based, human.
For a further data set, the system named is CD70^− Hs 835.T cells. Nature of the data set: 3H-TdR proliferation assay, CD70-negative RCC line. Particulars: CD70^− Hs 835.T cells. Type of data set: cell-based, human.
Data set [4] relates to CD70^+ CD8^+/Vβ17^+ T cells. Briefly: In vitro deletion of M1 peptide-specific T cells (flow cytometry, viable counts). Type of data set: cell-based, human. Here is the method: PBMCs from a normal HLA-A0201donor were stimulated with the M1 peptide for 5 days. 1F6 ADCs or control non-binding IgG (cIgG) ADCs were added to cells to a final concentration of 1 μg/ml. Total viable cell counts were conducted at 24, 48, and 76 hours post drug addition. Total numbers of CD8^+/Vβ17^+ for each culture condition are calculated (upper panel).
FIG. 19: Dose-response comparison of anti-CD70 ADCs on deletion of antigen-specific CD8^+/Vβ17^+ cells. PBMCs from a normal HLA-A0201donor were stimulated with the M1 peptide for 5 days. 1F6 ADCs or control non-binding IgG (cIgG) ADCs were given to cells to the specified final concentrations. The percentages of CD8^+/Vβ17^+ cells 4 days post ADC addition was determined by flow cytometry as in FIG. 17.
To examine CD70 expression on activated antigen-specific T cells, PBMCs from a normal donor expressing HLA-A0201 were stimulated with the M1 peptide. PBMCs were seeded at 2×10^6 cells/ml with 5 μg/ml of M1 peptide in AIMV medium supplemented with 5% human AB serum. IL-2 (Proleukin, Chiron) and IL-15 (R&D Systems, MN) were added to final concentrations of 20 IU/ml and 5 ng/ml, respectively, once every two days beginning on day 2 after culture initiation. The expansion of CD8^+/Vβ17^+ T cells and induction of CD70 on the CD8^+/Vβ17^+ was followed by three-color flow cytometry. Vβ17^+ T cells were identified by the anti-TCRVβ17 mAb clone E17.5F3 (Beckman Coulter, Miami, Fla.).
PBMCs from a normal donor expressing HLA-A0201 were stimulated with the M1 peptide as described in Example 11. On day 5, cells were harvested, washed, and re-seeded at 0.5-1×10^6 cells/ml (approximately 100,000 of CD8^+/Vβ17^+ T cells) in fresh AIMV medium supplemented with 5% human AB, 20 IU/ml of IL-2, and 5 ng/ml of IL-15. 1F6 or control non-binding IgG (cIgG) ADCs were added to some cultures to a final concentration of 1 μg/ml. Total viable cell counts were conducted 24, 48, and 76 hours after ADC addition. Two-color flow cytometry was conducted to determine the percentages of CD8^+/Vβ17^+ cells among the viable cells. The absolute number of CD8^+/Vβ17^+ T cells in each culture was then calculated. […] The effects of 1F6 ADCs on the CD8^+/Vβ17^− cells were also evaluated.
The potency of three 1F6 ADCs was then compared. HLA-A0201 PBMCs were stimulated with the M1 peptide and re-seeded as described for FIG. 18 with the various ADCs at the indicated concentrations (FIG. 19). The percent of CD8^+/Vβ17^+ T cells after a 96-hour incubation was determined.
On the technique in general: Flow cytometry measures light scatter and fluorescence of single cells or particles in a stream.

For a further data set, the system named is WSU-NHL cells. Briefly: 3H-TdR proliferation assay, hematologic lines. It counts as cell-based, human. To be noted: 96 hours, 3H-TdR last 16 hours. Here is the method: (§1) FIG. 5: Effects of anti-CD70 ADCs on the proliferation of transformed hematologic cell lines. A subset of the CD70^+ cell lines shown in FIG. 4 and the CD70^− Jurkat cell line were tested for their sensitivity toward 1F6 ADCs. Graded doses of the 1F6-vcMMAE, 1F6-vcAFP, or the corresponding non-binding control IgG (IgG) ADCs were added to cells at the initiation of culture. Cells were exposed to the ADCs continuously for a total of 96 hours. Proliferation was determined by pulsing with ^3H-TdR during the last 16 hours of incubation. The upper panels show the response of the WSU-NHL and Jurkat lines. The lower panel summaries the responses by the tested cell lines to 1F6-vcMMAE and 1F6-vcAFP in form of IC50s.
(§2) A subset of the CD70^+ hematologic lines listed in FIG. 4 was tested for sensitivity to the 1F6 ADCs. These lines were seeded at 5,000 cells per well in 96-well plates in quadruplicates in a total of 200 μl of culture medium containing graded doses of the ADCs as indicated in the FIG. 5 and the accompanying figure legend. Proliferation assays were carried out for 96 hours. Tritiated thymidine (^3H-TdR) incorporation during the last 16 hours of incubation was used to assess DNA synthesis. The responses of a CD70^+ B lymphoma cell line WSU-NHL and the CD70^− Jurkat cells are shown in the upper panels of FIG. 5. […] Proliferation inhibitory effects were apparent when the ADCs were used at concentrations higher than 0.005 μg/ml. […] On the other hand, proliferation of the CD70^− Jurkat acute T leukemia cell line was not affected by either 1F6-vcMMAE or 1F6-vcAFP at concentrations as high as 2 μg/ml. […] The responses of other CD70^+ cell lines tested are summarized in the lower panel of FIG. 5. […] Moreover, EBV-LCLs are phenotypically very similar to activated normal B cells.

The test system of a further data set is CD70^− Jurkat cells. Briefly: 3H-TdR proliferation assay, hematologic lines. Type of data set: cell-based, human. To be noted: at concentrations as high as 2 μg/ml. Here is the method: as §1, §2
The subject of another data set is Caki-1 cells. Briefly: 3H-TdR proliferation assay, RCC lines. To be noted: Caki-1 cells. It counts as cell-based, human.
The next data set has as its system Vβ17^− T cells. Briefly: Anti-CD3 plus anti-CD28 re-stimulation assay of bystander T cells (3H-TdR). It counts as cell-based, human. Particulars: Vβ17^− T cells from culture treated with 1 μg/ml, 96 hours, no exogenous IL-2. The source says: PBMCs from a normal HLA-A0201donor were stimulated with the M1 peptide for 5 days.
For data set [5], the system named is CD70^+ RCC lines. Particulars: in 5 of 7 CD70^+ RCC lines tested. On the procedure:
To examine the responses of CD70^+ RCC lines to 1F6 ADCs, cells were seeded between 1,000 to 3,000 cells per well in 100 μl of medium. An additional 100 μl of culture medium containing graded doses of ADCs were added to the wells after cells were allowed to attached overnight. In addition to DNA synthesis, cell viability, as a reflection of the cytotoxic activities of ADCs, was also assayed by the reduction of alamarBlue™ (Biosource International, Camarillo, Calif.). The alamarBlue™ dye was added at a one to four dilution during the last 4 to 24 hours of the incubation. Dye reduction was assessed by fluorescence spectrometry using the excitation and emission wavelengths of 535 nm and 590 nm, respectively. For analysis, the amount of ^3H-TdR incorporated or the extent of alamarBlue™ reduction by the treated cells was compared to that of the untreated control cells.

Data set [6] concerns tetanus toxoid-specific T cells. Type of data set: cell-based, human.
In another data set the test system is Caki-1 tumors. Nature of the data set: Caki-1 subcutaneous xenograft model of RCC. Type of data set: in vivo, nude mice. To be noted: Caki-1 xenograft, q4d×4. An excerpt:
Tumors were initiated in nude mice by implanting tissue tumor blocks (30 mm^3 in size) containing Caki-1 cells. Treatment began when average tumor size within a treatment group was around 100 mm^3. In the upper panel, treatment for the IgG and 1F6 groups began 17 days post implantation (filled arrow), while treatment for the 1F6-vcAFP and IgG-vcAFP groups began 25 days post implantation (open arrow). Indicated doses of either unconjugated mAbs or their ADCs were given for one course on a q4d×4 schedule.
Using xenografts of the Caki-1 line in nude mice, the […] antitumor activity of 1F6-vcAFP was tested. To establish Caki-1 tumors, nude mice were injected subcutaneously with 5×10^6 Caki-1 cells in 0.2 ml PBS. […] Caki-1-containing tumors were excised from tumor bearing mice and tumor tissue blocks of approximately 30 mm^3 were prepared. Naive nude mice to be used for evaluating in vivo antitumor activity of anti-CD70 ADC were each implanted subcutaneously with one tumor block of 30 mm^3. […] Treatment was initiated when the average tumor size within a group was approximately 100 mm^3 (FIG. 12, arrows).

B1: 1F6-vcMMAE: anti-CD70 mAb 1F6 linked to monomethyl auristatin E by the valine-citrulline (vc) dipeptide linker (conjugate)
VH: QIQLVQSGPEVKKPGETVKISCKASGYTFTNYGMNWVKQAPGKGLKWMGWINTYTGEPTYADAFKGRFAFSLETSASTAYLQINNLKNEDTATYFCARDYGDYGMDYWGQGTSVTVSS
VL: DIVLTQSPASLAVSLGQRATISCRASKSVSTSGYSFMHWYQQKPGQPPKLLIYLASNLESGVPARFSGSGSGTDFTLNIHPVEEEDAATYYCQHSREVPWTFGGGTKLEIKR
modifications: non-natural residues
notes: anti-CD70 mAb 1F6 linked to monomethyl auristatin E by the valine-citrulline (vc) dipeptide linker
B1: the activity on proliferation entry is on record as “not active” in data set [1]; “not active” in the data set with CD70^+ RCC lines [2] (other CD70^+ RCC lines (not Caki-1, Caki-2)); “not active” in the data set with CD70^− Hs 835.T cells. The “IC50, proliferation” value in the data set with Caki-2 cells and in the data set on Caki-1 cells was “lower than 20 ng/ml” each time. Also, the “effect on T cell proliferation” value in data set [3] is “substantially inhibited T cell proliferation”. Further, the “number of CD8^+/Vβ17^+ T cells” value in data set [4] (1 μg/ml, 76 hours after ADC addition) is given as “approximately 400,000”. The “inhibition of CD8^+/Vβ17^+ T cell expansion” value in data set [4] (96-hour incubation) was “dose-dependent inhibition”. Also, in data set [4] (96-hour incubation), the relative inhibitory activity entry is “weaker than both 1F6-vcAFP and 1F6-vcMMAF”. Besides, the “effect on the proliferation of WSU-NHL cells” value in the data set with WSU-NHL cells is on record as “dose-dependent inhibitory effects”. The “effect on proliferation of Jurkat cells” value in the data set with CD70^− Jurkat cells is on record as “not affected”.

B2: 1F6-vcMMAF: anti-CD70 mAb 1F6 linked to monomethyl auristatin phenylalanine by the valine-citrulline (vc) dipeptide linker (conjugate)
VH: QIQLVQSGPEVKKPGETVKISCKASGYTFTNYGMNWVKQAPGKGLKWMGWINTYTGEPTYADAFKGRFAFSLETSASTAYLQINNLKNEDTATYFCARDYGDYGMDYWGQGTSVTVSS
VL: DIVLTQSPASLAVSLGQRATISCRASKSVSTSGYSFMHWYQQKPGQPPKLLIYLASNLESGVPARFSGSGSGTDFTLNIHPVEEEDAATYYCQHSREVPWTFGGGTKLEIKR
modifications: non-natural residues
notes: anti-CD70 mAb 1F6 linked to monomethyl auristatin phenylalanine by the valine-citrulline (vc) dipeptide linker
For B2, the “IC50 values for proliferation inhibition” value in the data set on CD70^+ RCC lines [2] (CD70^+ RCC lines tested) is “lower than 30 ng/ml”. Moreover, the “response to anti-CD3 plus anti-CD28 re-stimulation” value in the data set with Vβ17^− T cells is on record as “comparable to that of the untreated cells”. Further, the “IC50 values to induce cytotoxicity” value in the data set on CD70^+ RCC lines [5] is recorded as “lower than 30 ng/ml”. Further, the “CD8^+/Vβ17^+ T cells in the culture” value in data set [4] (1 μg/ml added on day 5, 4 days, untreated 47%) was 14%. In data set [4] (96-hour incubation), the “inhibition of CD8^+/Vβ17^+ T cell expansion” value was “dose-dependent inhibition”.

B3: 1F6: anti-human CD70 monoclonal antibody obtained from the Central Laboratory of the Netherlands Red Cross Blood Transfusion Service (antibody, V domains shown)
VH: QIQLVQSGPEVKKPGETVKISCKASGYTFTNYGMNWVKQAPGKGLKWMGWINTYTGEPTYADAFKGRFAFSLETSASTAYLQINNLKNEDTATYFCARDYGDYGMDYWGQGTSVTVSS
VL: DIVLTQSPASLAVSLGQRATISCRASKSVSTSGYSFMHWYQQKPGQPPKLLIYLASNLESGVPARFSGSGSGTDFTLNIHPVEEEDAATYYCQHSREVPWTFGGGTKLEIKR
modifications: Mature 1F6 Heavy Chain Variable region from Figure 1; Mature 1F6 Light Chain Variable Region from Figure 1
notes: anti-human CD70 monoclonal antibody obtained from the Central Laboratory of the Netherlands Red Cross Blood Transfusion Service
Turning to B3, the “effect on tetanus toxoid-induced T cell proliferation” value in [6] is reported as “did not show a significant effect”. Further, the “therapeutic activity / tumor growth” value in the data set on Caki-1 tumors is recorded as “Very little therapeutic activity”.
